Assay: soluble on expression in E. coli; label from the status in PepcDB or PDB records

Soluble on expression in E. coli, not soluble:
MGSDKIHHHHHHMIRANRHKRVIAVCGKGGVGKTAFTAMLTRSLLESQKAGDLLVIDADPAMGLPNTLGIQVEKTIGHVRDLIINTARAGIGEDRVDLSSRLDYLVLETLYESDDYAFLAMGRTDSQGCFCSVNDLLKKSIRILSERFDTIVIDGEAGLEQMNRQVMNMVDLLIILSDTSTRGLQTVEHITKMVTEDHVIDCTQLGVVFNRVINNELLLTQAAERIGIEVFGMVPQDQSIVHYDLIGQPLTELPADSLALSAIRDFVANHIVQLDCR
MGSDKIHHHHHHMIRDARVLRAGFVPREVEHRDAEVNHLSSVLEPITNGEPADTAIVTGPSGAGKTCISQFVTERLREEVLDVETTYVNCWRNYTRFRTLYQILDDLGATIDIHRQSTPHDELVDRLQQHDGPRTVVILDEVDQLEDPSVIYDLHSLPQFAIICIANKEEELFSRVDDRLVSRLRSSEHVRMDKYHDEQLYDILSARAKWGLDEDVITDDQLYRIADAAAGDARLAIGILRTAAGKADRENHERITDDILLNAAEDARAQIKQKSLDSLTPHQRVVYDIVREHGPIGPSEIHERYSEDVDDPRTKRTIRTYLSKMEQYNLLEAEGTSRDREYSLVDSAAASPMQ
MGSDKIHHHHHHMIRGLRQIEPYVAGVQPAERKMIKLNTNENAYGASPKVREALANFDVDNLRKYSTLEQADLRAALANNLKVKPEQLMIANGSDDVLSIAFLAFFNNDEPVLFPDLTYGFYKVWADLYRVNYHEIPLAEDFTINTEDYLADNGGIILTNPNAPTGIYKPLNEIEKLLKANQDTVVIIDEAYISFGGQSALSLLNKYNNLVITRTFSKDAALAGLRVGYAIANEPLIAVMNAVKHSINPYSVDLLAERLATAAVEDWSYYQENAKKIQKTRAWFSEQLVKQGFDVLPSQANFVLTKPHDLATAKLFEELEARKIYVRYFPKVERIKDYLRISMGTQEEMEEVVKAIEEIRG
MGSDKIHHHHHHMIRIANGQGFWGDWLEAPVRLVEQGPLDYLALDYLAEVTMSILQKQKQADPKLGYARDFPPLIARIAEQIRERGVTVIANAGGVNPVACAREVVRLAPGLKVAVVLGDDVYPRLDSFLAKGYEMRDMDTGEPIAAIRDRIQSANAYIGAFPLAEALGTGANVVIAGRSTDTALALAPMVHRFGWGPDAFDRLAAGTIAGHIIECGAQCTGGNCQVDWESIPDMANIGYPIVEAEPDGSFVVTKHPAAGGRVSLDSVKEQLLYELGDPQRYITPDCIADFTSVRLAADGPDRVRVTDIRGGPRPPSLKLSISYANGWKAVGTLVYSWPQALAKARAADRIVRERLRNLGLSFEEIHTEFFGVSACHGALAPPNPDPPEVQLRIGVRGQDKKAVDRFTRELIPLVLNGPPGATGFGEGRPPVREIVAYWSTLVPREEIDTRVEVVE
MGSDKIHHHHHHMIRILMGSYGSGKTEISINLALKLKSSGKDVSLVDLDVVTPYFRLRDLKKKLEELGIHVVTVGDNLRYSDLPIIPKNTDWLSSEEAVIDTGGEDGAKAVGALRHLMNGKNTHTYFVVNAFRPFCERPEDIIENLKKISTLSKMKIDFLINNSNLGDMTTAEVVLEGERIVSEVSRKTGIKVLFTVVPEELIDPPETDYPLFSIRRFMKRKLGIGGMRT
MGSDKIHHHHHHMISEISHDVIWDLYEGEDYRDKILAEKWDVVFGEKILEMEDTLFVQSLRELELALKYAAARKDLETIKARFNLLLYTPELQGAKIKEILFQVLKFYNSFSIFALVSEKGVHRHAYVDFVTGGNYLSLIYHEDLPLNINSHTVFIDDVPPDFSPAGLGGRKIILGMDSTPKNNIPFVEIPPLRERKMDIPYMLDGVIKSLQFQGKTVKIDDDLTKLLIEYHWPGNTQEFLEKVYEIITLENPVDQAMKIASGIDEIKGLNLKEFVDSLVEFVEKKVIKKALEENEGNRKKVCEVLNMNYKTLSYKMKKYGLT
MGSDKIHHHHHHMISMDEFIEFVRGGPLGPIKKWGTKWSLWPVHLVTACCGAELAHAFACGYDGERIGALNYGIARQTNLIIVEGAITRKMAKVLRITWEQMPDPKFVIVMGACGLQGGIFWNGYHMVKPSDVVPVDFFIPGCPPTPEALLRGIRQLQFKIETGEAKTSATFPEVPLEAGRKPRVLPKSPKKISKAPAVIVNAPKEVDWEFGQKLVEEIKAKVEAKSVTITGKNRIAVKVESDYIPRAAMRLREMGFDHVKNVNVIDVPNEDKFIVEYHFSSYSVKELMPVIVNVFADIPRENPRVKSLASMFPSADYMEREMHDFFGVIFEGNPWMGRKFLLAPDAPEFPLRKDFKLEEEVYVR
MGSDKIHHHHHHMISMTQNNVEKWGTYEITLKGKAEGNPFTDVEIKAVFTSEAGDSFEVEGFYDGEDTFKIRFMPNRTGLWKYEVRSDIKDLDGMKGEFLCVDPSEGNHGPVRVCNTYHFCYEDGTPYHPFGTTLYAWVHQREELIQQTLESLRNSPFNKVRMCVFPKYYAYNREEPPMLPMSWREEDGRYQVEFNVKFFQHFERLVKELMDMGIEADVILFHPYDKWGFCSMPEEVDKAYLRYLIARISSYRNVWWSMANEYDLIKPQKDWDGYFHFIVEKDPYNHLRSVHQCFKFYDHTKPWITHASIQWQGSLRSWSGEPEIDIGINLIPKWREMYKKPVIIDECGYEGNIEYGWGNLPPQEMMNRFWEGVTSGGYVTHGETYYSEDEVLWWSKGGRLKGESPKRIAFLRTIIEEAPPFLKPIKLDPMMDWDVHCIGKEGEYYLIYFDINRPVKRTLKLPEGKYRVDLVDCWETEIHSLGIFQGQVVIRLPGKSYVALRIQKMENNDDWIILREDAKL
MGSDKIHHHHHHMISTEYRPKSLLEEFVVCFYFNKSDNFEYADYANPTTNQEMFFNLGDDFELKNSIGQVTSQRSWISGLQSKSLPIKCSGRHITAGVIFKPWGLYAAFGINAKELANKTIYSKWLCDLSNELDNSEFSESQFFDLMEFNLLKSIKRSKMTKVMQKIVNEIEQENVFTLSEKLNRSKKTIIESFNKMIGLSPHKFYTLKCICETITLLQNNPTIKLTELAYNQGFYDQAHFIRVFKEHTGLTPKEFRNSIMKR
MGSDKIHHHHHHMITAAVVTFHTSRKDLIRLIDCVLQSSVDKFFIIDNSTNDALRELESVSERITYIYSDNLGFGSGHNIAIDRAIDLGSDYHIIINPDIYWNGDIIEQLVQFMDQNKDCGLVMPKILYPNGEVQYLCKLLPTPLDLFGRRFIPFKMFQEKRNAWYEMHWSGYDKVMEVPSLSGCFMFIRTDILKKTGGFDKRFFMYAEDMDLCRRIGEITRTMYYPSVLVFHEYEKGSYKNRKLLKYHICSIIKYFNKWGWFIDKKRRKKNDYCLKLTEHIRN
MGSDKIHHHHHHMITCQMIHKTYAAGHGERKVLRGLDFAISRGEHVGFLGRNGAGKTTLIKLLGGVEFPTAGTIRRRMTVSWPLGFGGGFQGSLTGYDNARFIARIYGMSYRDIADFVEDFTELGRQLRAPVKTYSQGMRARLAFALSMAIEFDCYLVDEVILVGDHRFHEKCRLELFGKRSDRALILASHNAALIREHCTRAMVLHDGRGTMHDDIDLALRHYEAL
MGSDKIHHHHHHMITTARQLKDLIRNMSKKKSADAQILMRNYMMERFLERISLSEYKNQFILKGGMLVAAMVGLDARATMDLDATIKGTNVSVEDVEMIISQIISIPLDDGVSFRVKRISEIMEEADYPGVRVSMETKFDGVITPLKIDISTGDVITPREIKYKFNLMLEDRTIEVWAYNLETVLAEKLETVVSRNVTNTRMRDFYDIYILQKLYGEQLQKQVLWTALVATAKKRGTLDLIEAEDIREIFDEIESSPVMETLWKTYQKNYSYAADISWHAIVKSICALYGSILENMYNT
MGSDKIHHHHHHMITTSNITMQFGVKPLFEKVSVKFGEGNRYGLIGANGSGKSTFMKILGGDLEQTAGEVAIENGLRLGKLRQDQFGYEDQRVIDVVMMGHTEMWAAMSERDAIYANLEATEDDYMRAADLEAKFAEYDGYTAEARAGELLMGVGIPVEQHFGPMSEVAPGWKLRVLLAQALFSNPDILLLDEPTNNLDINTIRWLEHVLNERNSTMIIISHDRHFLNSVCTHMADLDYNTIRIYPGNYDDYMIASAQARERQLSSNSKAKERIQELQEFVARFSANKSKARQATSRLKQVDKLKSEMVEVKPSSRQNPFIRFEMDDKFKLHRQAVEVEGLSKAYDNKVLFKDLNLILEAGARLAIIGPNGAGKTSLIKLLAGAFEPAYAEGLTADRGTIKWAEKAQIGYFAQDHEADFDSDATLTEWMREWGQEGDDEQVIRGTLGRLLFGGDEVGKPVRVLSGGEKGRMLYGKLILQKPNVMIMDEPTNHMDMESIESLNMALEKYKGTLIFVSHDRQFVSSLATHVLELDGKGGYDYYTGNYEDYLASKGLE
MGSDKIHHHHHHMITVNDMSMQFSDRKLYSDVNLKFTPGNCYGIIGANGAGKSTFLKILEGKLQPTSGNVSISPNERMSSLNQDHYAFEEFTVMNTVIQGYKKLYEVMQAKDALYAKADFTEEDGMKAANLEAEFAEMDGWNAEAEASQLLQQLGIDESLHDSKMSELTEGQRIKVLLGQALFGKPDILILDEPTNGLDPKSISWLEDFLADFPNTVIVVSHDRHFLNSVCTMMCDVDFGKIELFVGNYDFWMESSALAKRLRENANAKKEEQIKELQEFVARFSANASKSKQATSRKKQLDKITLDDIKPSSRKYPFIRFEPARELGNDLVRVDKVSKSIDGVKILDNITFTVRPGEKAAILSQNDLATTVLMQILAGEMEPDSGSVTWGQTTERSYIPRDINSYFEDDRFDILEWLRQYAPKEESDNTFLRGFLGKMLFSGEDVLKNVTKLSGGEKVRCMISKTMLSKANVLILDDPTNHLDLESITALNEGLTSYKSSIIMTSHDHEFIQTIADHIIEVSDKGSVDRAETTYDEFLNHDAIQEQVSKLY
MGSDKIHHHHHHMIVGIDVGGTNTDVAVLEGNVFQIKSFRTSEVIQNLSDFIEKNFGDAEAVGIGVAVWFVDGKPVKAPNLPAIPKMELDVPFIVDNDANCFAYFAAKTLNFRHLLAVTVGTGIGGGIVADGKIYRGRGAAGEIGHTFVGGRKRCRCGGEGHLEAYFGGWAMENVKELIDTGEIYSTAEFALFCRSLANAVMLLNPEAIALGGRIGGRLDERPLAEKVNRYLPEEIDVVVRVVKDDYAVAKGAALLALDTISQNLP
MGSDKIHHHHHHMKAAVYEGKKAIKMTELPTPKAGPNDVVIQNIYAGICGSDVAVYNHGSGTGHKIETDHEFGHEAVSKVVEVGDDVHDFKIGDRVYPYPLLARGDPSRAGSMGGFSEYILIPNAKLNRQLYLVPKEIDNHVAAMIEPFTVGTRAAKQTRPDKNDNAIVYGTGTIGMAAAVALKHLGVKQVMLVDLSDYRLNVAKELGFLTVNSSRDDVRSQAIEAFGKAEYSLHGEAPDTQIFLDAAGHNSILEDFLQFGPVGSRFVTVGVNNSKPQIDFLELIFGSKSVGGSGGYRPEDVQTVFEIMKERQSDLRKMVSQEFDWQDLEKGIQTATDTTISEKVLINYHL
MGSDKIHHHHHHMKADLHVHTCLSPCADLLMIPPVVERASGDVQILGIVDHNSAKNVPAFLKMKKLVVPGIEIQTVEDVHVLGFFSDIESALKVTKIVYEHLPSVKHDHEKMGYQLFVDEKGNYTGYEDVPLGFPSDLTLSQAVELIRSFGGIPVYAHVEKRFGVLYQLGFFPDLEIPVAEVVSREGKENAQKKNLRVIVTSDAHFPSDIGRRYIDISGAPNSPEEVLKKILNSEYTLGGVLNW
MGSDKIHHHHHHMKAILIDDDQPTLFILNKMLAKIPRVEIVGEFLNAGDAYHFLKHNPVELAFVDIKMPGESGLDFAWRSLAEFPDLYVVFLTAYKDYAVEAFEVQAFDYIVKPIQQERLERTVSRVLQRKAAGISSRNTVEQAKVLFVYCLGGLDLRNTNDDFVMISSSKGQELFAYLLVHRERLTSKWRIMEDVFQGMSPQNAETYLNTTVYKLRKVLEQYGKRSAIVVASESYVMEIKDFYIDFIEFENKVRTLPSITEANLQEAIQTFHLFAGELFGDKDYQWSLAEKERLGDIYCSFAKKLGRYLLENQNSALALQVFKKLVAINELDEESHCFLLQVYAAQNDLPSLIRHYDRYVQLLQRELAISPSNRTAQLFLSLKKSLL

From the DeepSol protein solubility set
